Experimental data: US20100129390A1, “DKK1 AS A UNIVERSAL TUMOR VACCINE FOR IMMUNOTHERAPY OF CANCERS” (priority 2007, published 2010)

Experiments:
HLA-ABC = assay: cell-based or functional assay
HLA-A*0201 molecules = biological target: T1, HLA-A*0201 molecules (Homo sapiens, UniProt P04439, D140Y/D185E/D98H/E176V/E277Q/G131W/G231S/I119V/I121R/I166T/I218V/L300P/L318F/N151K/N90K/P208A/P217A/Q86G/Q94H/R138H/R169H/T345S); assay: Peptide-T2 cell binding assay; conditions: HLA-A*0201 expression by flow cytometry (FIG. 2A)
T1 construct: endogenous in cells; host or cells: T2 cell line
Protocol: All peptides were synthesized in the Peptide Synthesis Facility at M. D. Anderson Cancer Center. Purity of synthetic peptides was confirmed to be >98% by reverse-phase high-performance liquid chromatography and mass spectrometry. Synthetic peptides were dissolved in dimethylsulfoxide (DMSO; Sigma, St. Louis, Mo.), and stored at −20° C. until use. Peptides binding to HLA-A*0201 molecules were measured using the T2 cell line according to a protocol previously described. Nijman, H. W., et al., Identification of Peptide Sequences that Potentially Trigger HLA-A2.1-Restricted Cytotoxic T Lymphocytes, Eur J. Immunol. 1993, 23:1215-1219. Briefly, T2 cells were incubated overnight with 3 μg/mL of β2-microglobulin (Sigma) and different concentrations of peptides, followed by wash and incubation with FITC-labeled anti-HLA-A*0201 mAb BB7.2 (BD PharMingen). After washing, cells were analyzed for the levels of HLA-A*0201 expression by flow cytometry. HLA-A*0201 expression was quantified according to the formula [(mean fluorescence with peptide−mean fluorescence without peptide)/mean fluorescence without peptide]×100.

[1] = test system: DKK1 peptide-specific T-cell lines; assay: T-cell proliferation assay (3[H]-thymidine); type: cell-based, human; conditions: after 3 to 4 rounds of in vitro stimulation; P<0.01 compared with unpulsed DC
Protocol: DKK1-specific T cells were generated from PBMCs of HLA-A*0201^+ blood donors and myeloma patients by repeated stimulation of autologous T cells with DKK1 peptide-loaded mature DCs. Briefly, the non-adherent cells of PBMCs (2×10^6/mL; used as T-cell population) were cocultured in 50 mL tissue-culture flasks at 37° C. in 5% CO2 for 7-10 days in Aim-V medium supplemented with 10% pooled human serum (T-cell medium) with mature DCs (2×10^5/mL) preincubated with DKK1 peptides at a final concentration of 50 μg/mL at 37° C. for 2 h. After culture, T cells were collected and restimulated with DKK1 peptide-pulsed autologous mature DCs every week, and the cultures were fed every 5 days with fresh medium containing recombinant IL-2 (20 IU/mL), IL-7 (5 ng/mL) and IL-15 (5 ng/mL; all from R&D System). Induction of DKK1-specific T cells was monitored weekly using T-cell proliferation assay and DKK1 peptide-HLA-A*0201 tetramers (synthesized by MHC Tetramer Laboratory, Baylor College of Medicine, Houston, Tex.). […]
T cells (5×10^4/100 μL/well) were seeded into 96-well U-bottom tissue culture plates (Corning Incorporated, Corning, N.Y.) in T-cell medium. […] T-cell proliferation was measured after overnight incubation with ^3[H]-thymidine ([…]/0.037 MBq/well). Results are expressed as mean count per minute (CPM) of triplicate cultures.

[2] = test system: HLA-A*0201 transgenic mice; assay: In vivo immunogenicity of the peptides; conditions: 100 μg per mouse s.c., single immunization, splenocytes two weeks after
Excerpt: HLA-A*0201 transgenic (Tg[HLA-A2.1]) mice were purchased from Jackson Laboratory (Bar Harbor, Me.). Ishioka, G. Y., et al., Utilization of MHC Class I Transgenic Mice for Development of Minigene DNA Vaccines Encoding Multiple HLA-Restricted CTL Epitopes, J. Immunol. 1999, 162:3915-3925; Alexander, J., et al., A Decaepitope Polypeptide Primes for Multiple CD8+ IFN-Gamma and Th Lymphocyte Responses: Evaluation of Multiepitope Polypeptides as a Mode for Vaccine Delivery, J. Immunol. […] Mice were maintained at the animal facility and studies were approved by the Institutional Animal Care and Use Committees of The University of Texas M. D. Anderson Cancer Center.
For immunization, peptides were diluted in PBS at room temperature, mixed, and emulsified with an equal volume of incomplete Freund's adjuvant (Sigma). […]
To examine whether the peptides were able to immunize HLA-A*0201 transgenic mice, we injected 100 μg per mouse of peptides P20 (SEQ. ID NO. 1) and P66v (SEQ. ID. NO. 4), and Flu-matrix peptide as positive control s.c. to the mice (3 mice per peptide) according to established protocol. […] In vivo immunization successfully generated peptide-specific T cells, detected as specific IFN-γ-expressing (FIG. 2C) and peptide (P20 or P66v)-HLA-A*0201 tetramer^+ CD8^+ T cells (FIG. 2D).

[3] = biological target: T2, HLA-A*0201 molecules on T2 cells (human); assay: cell-based or functional assay
T2 construct: MHC class I molecule on T2 cells; also called HLA-A2.1

[4] = test system: murine myeloma cell line tumor-A; assay: Vaccination and murine myeloma challenge; type: in vivo, Balb/c mice; conditions: vaccinated three times, s.c. challenge with tumor-A 1×10^6 cells/mouse
Protocol: Balb/c mice (4 per group) were s.c. vaccinated three times with murine DKK1 protein (50 ug/mouse) at a 30-day interval followed by s.c. challenge with murine myeloma cell line tumor-A (1×10^6 cells/mouse) after one weeks of third vaccination. Tumor burdens were measured twice every wk. Mice were euthanized when s.c. tumors reached 225 mm^2 or when mice became moribund. FIG. 18A is a graph depicting ELISA titers of anti-DKK1 antibody in the serum of immunized mice. Results shown in FIG. 18B are survival of mice that received DKK1 protein vaccinations and PBS control. Splenocytes were isolated from survival mice and pooled, and restimulated with irradiated tumor-A for 5 d. […]
Balb/c mice (5 per group) were s.c. vaccinated three times with three DKK1 peptides (100 ug/mouse) at a 14-day interval followed by s.c. challenge with murine myeloma cell line tumor-A (1×10^6 cells/mouse) after one week of third vaccination. Tumor burdens were measured twice every wk. […]
Balb/c mice (5 per group) were i.m. vaccinated three times with murine DKK1 DNA (50 ug/mouse) at a 14-day interval followed by s.c. challenge with murine myeloma cell line tumor-A (1×10^6 cells/mouse) after one weeks of third vaccination. Tumor burdens were measured twice every wk. […]

[5] = biological target: T2, HLA-A*0201 molecules on T2 cells; assay: peptide-T2 cell binding assay, flow cytometry of surface HLA-A*0201 with mAb BB7.2
Protocol: All peptides were synthesized in the Peptide Synthesis Facility at M. D. Anderson Cancer Center. Purity of synthetic peptides was confirmed to be >98% by reverse-phase high-performance liquid chromatography and mass spectrometry. Synthetic peptides were dissolved in dimethylsulfoxide (DMSO; Sigma, St. Louis, Mo.), and stored at −20° C. until use. […] Nijman, H. W., et al., Identification of Peptide Sequences that Potentially Trigger HLA-A2.1-Restricted Cytotoxic T Lymphocytes, Eur J. Immunol. 1993, 23:1215-1219.

In the case of anti-HLA-ABC mAb W6/32 (antibody), the inhibition of T cell-mediated cytotoxicity against peptide-pulsed T2 cells (51Cr release) (HLA-ABC) is reported as 70 to 80 % inhibition.

In the case of “ILYPGGNKV (listed as Homo Sapiens) [P66v]”, the binding affinity (HLA-A*0201 molecules) is reported as “much higher binding affinity than P66”, the “T-cell line proliferation in response to autologous DCs pulsed with peptide” value [1] is reported as “proliferated in response to autologous DCs pulsed, but not unpulsed” and the “immunogenicity in immunizing the mice” value [2] is reported as “as immunogenic as the Flu-matrix peptide”.

With anti-HLA-A*0201 mAb BB7.2 (antibody) the inhibition of T cell-mediated cytotoxicity against peptide-pulsed T2 cells (51Cr release) [3] was 70 to 80 % inhibition.

“ALGGHPLLGV (listed as Homo Sapiens) [P20]” was tested, and the “T-cell line proliferation in response to autologous DCs pulsed with peptide” value [1] was “proliferated in response to autologous DCs pulsed, but not unpulsed” and the “immunogenicity in immunizing the mice” value [2] was “as immunogenic as the Flu-matrix peptide”.

B1: DKK1 Protein Vaccine: murine DKK1 protein, 50 ug/mouse s.c. (protein, UniProt O54908 32-272, looked up)
Dickkopf-related protein 1: TLNSVLINSNAIKNLPPPLGGAGGQPGSAVSVAPGVLYEGGNKYQTLDNYQPYPCAEDEECGSDEYCSSPSRGAAGVGGVQICLACRKRRKRCMRHAMCCPGNYCKNGICMPSDHSHFPRGEIEESIIENLGNDHNAAAGDGYPRRTTLTSKIYHTKGQEGSVCLRSSDCAAGLCCARHFWSKICKPVLKEGQVCTKHKRKGSHGLEIFQRCYCGEGLACRIQKDHHQASNSSRLHTCQRH
In the case of B1, the “protection against murine MM challenge” value [4] is reported as “can Protect Murine MM Challenge”.

B2: DKK1 peptide P20 (peptide)
peptide: ALGGHPLLGV
notes: Synthetic peptide, purity >98%; the end of the range follows from the length of 10 residues
B2: binds [5].

B3: DKK1 heteroclitic peptide Py20 (peptide)
peptide: YLGGHPLLGV
notes: Heteroclitic variant of P20
B3: binds [5].

B4: DKK1 heteroclitic peptide P66v (peptide)
peptide: ILYPGGNKV
notes: Heteroclitic variant of P66
B4: binds [5].

B5: DKK1 peptide P66 (peptide)
peptide: ILYPGGNKY
notes: Synthetic peptide; the end of the range follows from the length of 9 residues
B5: binds [5].
